The source of these data is the supplement of paper PMC10567573.

± gives the standard deviation.

The nature of this data set: protein stability index of a GFP-peptide fusion (GPS, HEK-293T) (PSI 1-6); higher = more stable.
Where [1] appears, read: treatment: DMSO, c terminus: a fixed tail appended.
The mark [2] stands for this setting: treatment: MLN4924 1 uM, 8 h, c terminus: a fixed tail appended.
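Also: 24-mer peptide tiles fused after GFP, lentivirally expressed, FACS-sorted into six equal bins by GFP/DsRed ratio, decoded by Illumina sequencing, PSI is the read-weighted mean bin number.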

For YLRCIQSEVSFEGAYGNLKRLYDK [SMG5], the protein stability index under setting [1] was found to be 2.61 ± 0.26 and the protein stability index under setting [2] came out at 2.64 ± 0.34.
The corresponding values for ESRIVEQENAIQTMELRNYFSLYC [SNX8] are 2.62 ± 0.3 and 2.61 ± 0.19.
The corresponding values for SMAAVPTLELCHDELFADLFNSNH [CEBPD] are 3.57 ± 0.3 and 3.6 ± 0.26.
VTPFDHNIVNLLTTCSTPLLNSPP [AUP1]: the protein stability index by setting is: under setting [1], 2.42 ± 0.12; under setting [2], 2.48 ± 0.39.
The corresponding values for SKLASMSNDFKSVLEVRTENLKQQ [STX5] are 4.04 ± 0.28 and 4.21 ± 0.32.
The corresponding values for QTESGSEEVSSTVHIETFTTRHGE [C10orf62] are 5.21 ± 0.3 and 5.27 ± 0.34.
As to QFNVSGPGLLEEDNQWMTQINRLQ [NECAB1], the protein stability index reads like this: under setting [1], 3.02 ± 0.13; under setting [2], 3.31 ± 0.19.
As to PAPKSTYECRCIGEEKEMWNFGEK [TIA1], the protein stability index turned out to be 3.86 ± 0.23 under setting [1] and 3.85 ± 0.33 under setting [2].
Turning to ACGGGHLLPYFYIIYMAILLTHRC [DHCR7], the protein stability index reads like this: under setting [1], 2.8 ± 0.18; under setting [2], 3.07 ± 0.19.
The corresponding values for HLEGYHGTAGDSMSYHSGSVFSAR [TNXB] are 3.16 ± 0.43 and 3.47 ± 0.44.
The corresponding values for AAGSPRSPGPLPGARGLHLPDAGS [ISL2] are 4.6 ± 0.35 and 4.72 ± 0.16.
The corresponding values for AFEPEALGNLVEGLDFHRFYFENL [CAMK2A] are 2.51 ± 0.18 and 2.61 ± 0.3.
As to LSNLVQHILKKYYGNGMRKSPEMP [RTP4], the protein stability index under setting [1] was 2.43 ± 0.35 and the protein stability index under setting [2] turned out to be 2.28 ± 0.11.
The corresponding values for LPLALVTWVPMFLSTLLAPYQALR [SOAT2] are 2.93 ± 0.6 and 2.95 ± 0.35.
The corresponding values for GDNPYMYPEQSKGFHKAGSMLPPV [SPATS1] are 3.37 ± 0.16 and 3.35 ± 0.27.
Turning to VFMEFGPPNQQMSPSPMSHGHYSM [DLX1], the protein stability index turned out to be 2.21 ± 0.1 under setting [1] and 2.24 ± 0.23 under setting [2].
The corresponding values for LRLLQHTPSARRNYRIAGARLMRS [C6orf223] are 2.99 ± 0.22 and 3.08 ± 0.32.
The corresponding values for HRIWMYNCHIGGSFSEETEKKFEH [LOXL2] are 2.42 ± 0.21 and 2.62 ± 0.34.
Regarding LREIPETTPIEEVKGLFKSENCPK [LARP4], the protein stability index is 5.06 ± 0.19 under setting [1] and 5.1 ± 0.33 under setting [2].
The corresponding values for EQLQGFNTRVRELAQAAGFAPQTG [DNAAF3] are 3.66 ± 0.28 and 3.91 ± 0.67.
The corresponding values for EIFAIDLRCGNQGKGWKATRLFHD [DCAF4] are 2.24 ± 0.44 and 2.12 ± 0.22.
The corresponding values for QILDSLSYMRNENVISELNIEDYF [FBXO39] are 2.32 ± 0.29 and 2.2 ± 0.12.
FADGVLSGEELHELFHTIDTHNTN [NECAB1]: the protein stability index runs as follows: under setting [1], 3.12 ± 0.38; under setting [2], 3.68 ± 0.21.
Take STNEEEKEENEAESDVKHRTRDYK [PRIM1]: the protein stability index is, setting by setting: under setting [1], 5.57 ± 0.17; under setting [2], 5.16 ± 0.47.
The corresponding values for HSFQSSHRPSLNSVSLQINCQSVA [DLC1] are 2.95 ± 0.29 and 2.98 ± 0.28.
The corresponding values for QVDPGTDLEPGVLMSAQTITSETT [EPB41L3] are 5.21 ± 0.32 and 5.16 ± 0.13.
The corresponding values for AATLLLALLSCCLTVVSFYQVAAL [TNFSF13B] are 3.24 ± 0.23 and 3.31 ± 0.32.
For ISEYEKSLQFDEKCLSIMLAEWEA [RPAIN], the protein stability index came to 2.34 ± 0.3 under setting [1] and 2.87 ± 0.33 under setting [2].
The corresponding values for GKMVEEVDGRATQKLIVNLKPEKS [PTPRD] are 4.69 ± 0.13 and 4.66 ± 0.29.
The corresponding values for TCSTRFVSGGSAGGYGGGVSCGFG [KRT13] are 2.46 ± 0.29 and 2.43 ± 0.31.
The corresponding values for SENMWNTGSTYNLSSGMAVAGMPT [CARM1] are 3.48 ± 0.15 and 3.63 ± 0.1.
Turning to IDHYVGIARDQTKSIVEKIQAKLP [RTN3], the protein stability index by setting is: under setting [1], 3.05 ± 0.074; under setting [2], 3.22 ± 0.39.
The corresponding values for LPETLNSPLLETFSDLQVYSYRRL [SLC22A15] are 2.4 ± 0.1 and 2.81 ± 0.27.
The corresponding values for MKDSMSAAEVGTGQYATTKGISQT [EPB41L3] are 4.75 ± 0.094 and 4.78 ± 0.44.
The corresponding values for LGALKPLPACEFEMGGSEGIVESI [NETO1] are 4.28 ± 0.2 and 4.31 ± 0.25.
For the sequence SVNTHDYAKVKEFIVDILQFLDIG [MATN2], the protein stability index is, setting by setting: under setting [1], 2.23 ± 0.35; under setting [2], 2.05 ± 0.32.
The corresponding values for FTRPNEKGEYEVAEGIGSTVFRAI [BTBD10] are 3.18 ± 0.42 and 3.46 ± 0.38.
As for PWARGCGMFTFLSSVTAAVSGLLV [SLC2A12], the protein stability index runs as follows: under setting [1], 2.54 ± 0.3; under setting [2], 2.57 ± 0.21.
The corresponding values for KQYVLLSILLCLLASGLVVFFLFP [TMEM106C] are 2.43 ± 0.28 and 2.56 ± 0.44.
The corresponding values for AVGDRQDGLREQLQAPVPPDSVPS [PBXIP1] are 5.33 ± 0.37 and 5.37 ± 0.18.
VKNSNRYDVEMTDELVGLPFSSHT [FBXO34]: the protein stability index reads like this: under setting [1], 3.8 ± 0.25; under setting [2], 4 ± 0.12.
The corresponding values for ERQCALRVFKARIYTNRYETNEED [FBXO39] are 3.54 ± 0.36 and 3.61 ± 0.41.
For LPDLCLCRVFWWLGDRDRSRAALV [FBXO39], the protein stability index by setting is: under setting [1], 2.5 ± 0.51; under setting [2], 2.76 ± 0.7.
The corresponding values for FCGATIAGLSLLSPSVMRLVHTQE [ALKBH7] are 3.06 ± 0.44 and 2.71 ± 0.96.
For KEDAKGKSEEELAECFRIFDRNAD [TNNC2], the protein stability index runs as follows: under setting [1], 5.54 ± 0.24; under setting [2], 5.71 ± 0.12.
The corresponding values for SLDISGHMILENCSISKMEEEAGQ [ZER1] are 4.66 ± 0.22 and 4.68 ± 0.22.
The corresponding values for VSCFLTFNIFDWLGRSLTAVFMWP [SLC29A1] are 3.03 ± 0.07 and 3.502 ± 0.017.
The corresponding values for WRERAVEKRERALEEVERAILEMK [ZBED2] are 4.2 ± 0.14 and 4.29 ± 0.44.
DTNLGRLEDGQTPLHLSALRDDVL [ASB7] came in with a protein stability index under setting [1] of 4.59 ± 0.1 and a protein stability index under setting [2] of 4.56 ± 0.21.
With IAMTSGTVQPKQDAFANFANFSK [CLINT1], the protein stability index turned out to be 4.22 ± 0.22 (treatment: DMSO, c terminus: native) and 4.17 ± 0.31 (treatment: MLN4924 1 uM, 8 h, c terminus: native).
Consider ESSSDSGSSDSEEERATRLAELQE [BRD3], for which the protein stability index stood at 5.5 ± 0.25 under setting [1] and 5.51 ± 0.063 under setting [2].
The corresponding values for DVCSFPNALVTKLLLDCGAEVNAV [FEM1B] are 2.48 ± 0.83 and 2.44 ± 0.48.
